Data on 4 molecules can be found in patent US20020142392A1 (WA PHARM, published 2002).

The target in assay [1] is T1, human melanocyte stimulating hormone receptor (MSH receptor), polypeptide of SEQ ID NO:2 (human, UniProt Q01726 1-317).
T1 construct: also called 11D cDNA product; expressed MSH receptor
T1 sequence: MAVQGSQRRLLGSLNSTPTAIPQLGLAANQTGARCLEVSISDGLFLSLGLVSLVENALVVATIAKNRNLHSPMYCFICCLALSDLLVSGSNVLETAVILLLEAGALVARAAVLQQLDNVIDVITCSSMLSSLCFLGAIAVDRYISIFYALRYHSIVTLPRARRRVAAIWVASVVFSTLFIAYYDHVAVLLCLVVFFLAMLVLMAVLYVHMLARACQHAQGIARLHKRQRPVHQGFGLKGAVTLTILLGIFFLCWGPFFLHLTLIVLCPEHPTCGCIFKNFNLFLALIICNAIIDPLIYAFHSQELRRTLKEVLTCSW
Put plainly: competition with 125I-NDP-MSH on pE-11D transfected COS-7 cells; Cheng-Prusoff from IC50. Here is the method: (§1) 20877, USA). Eighty percent confluent cultures were transfected with 1 μg of pE-11D plasmid DNA and 40 μg lipofectin (BRL, 8400 Helgerman Court, Gaithersburg, Md. 20877, USA) in serum free medium. Five hours after transfection, serum containing medium was replaced, and cells were cultivated for 20 hours. Cells were then scraped off, centrifuged, resuspended in serum containing medium, plated on 48 well plates, and allowed to grow for 24 hours. […] Radioactivity was counted and data analyzed by iterative, non-linear curve fitting programme suitable for radioligand binding analysis (see FIG. 6). […] The Kᵢ-values were then calculated from the IC-50 values estimated thus estimated by using the Cheng and Prusoff equation, as previously described (Cheng and Prusoff 1973).

Assay [2] addresses T2, MC-2 receptor, polypeptide of SEQ ID NO:16 (human, UniProt P33032 1-325).
T2 construct: Tested on COS-7 cells transfected with pE-MC-2; also called MSH receptor subtype; pE-MC-2 transfected COS-7 cells
T2 chain: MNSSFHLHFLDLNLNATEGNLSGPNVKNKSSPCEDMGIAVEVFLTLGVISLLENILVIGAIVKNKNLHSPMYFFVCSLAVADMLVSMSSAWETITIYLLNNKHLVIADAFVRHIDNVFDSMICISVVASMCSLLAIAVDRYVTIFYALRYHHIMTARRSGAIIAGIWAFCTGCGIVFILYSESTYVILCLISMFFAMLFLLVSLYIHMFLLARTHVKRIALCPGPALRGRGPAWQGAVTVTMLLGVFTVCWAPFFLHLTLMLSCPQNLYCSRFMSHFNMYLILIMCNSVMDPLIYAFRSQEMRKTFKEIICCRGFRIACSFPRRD
As to the kind of experiment: competition with 125I-NDP-MSH on pE-MC-2 transfected COS-7 cells; Cheng-Prusoff from IC50. On the procedure: as §1, with “Eighty” for “20877, USA). Eighty”, “pE-MC-2” for “pE-11D”, “9).” for “6).”

For assay [3], the target named is T2, MC-2 receptor, polypeptide of SEQ ID …. As to the kind of experiment: competition with 125I-NDP-MSH on pE-MC-2 transfected COS-7 cells. Here is the method:
as §1, with “Eighty” for “20877, USA). Eighty”, “pE-MC-2” for “pE-11D”, “9).” for “6).”

B1: ACTH (4-10) (peptide, UniProt P01189 141-147, looked up)
peptide: MEHFRWG
notes: domain: ACTH (4-10); Bought from Saxon Biochemicals GmbH
For orientation: Ki means a measure of affinity in units of concentration, obtained from inhibition or displacement. A higher Ki goes with lower affinity. On to B1, for which, in assay [1], the Ki came out at 22.4 nM.

B2: β-MSH (peptide, UniProt P01189 217-234, looked up)
peptide: DEGPYRMEHFRWGSPPKD
notes: domain: β-MSH; Bought from Saxon Biochemicals GmbH; also called beta-melanocyte stimulating hormone
Consider B2, for which the Ki was found to be 0.449 nM in assay [1] and 1750 nM in assay [2].

B3: ACTH (1-39) (peptide, UniProt P01189 138-176, looked up)
peptide: SYSMEHFRWGKPVGKKRRPVKVYPNGAEDESAEAFPLEF
notes: domain: ACTH (1-39); Bought from Saxon Biochemicals GmbH; also called adrenocorticotropic hormone (1-39)
As for B3, the Ki in assay [1] was determined as 0.17 nM; in assay [2], 929 nM.

B4: β-endorphin (peptide, UniProt P01189 237-267, looked up)
peptide: YGGFMTSEKSQTPLVTLFKNAIIKNAYKKGE
notes: domain: β-endorphin; Bought from Saxon Biochemicals GmbH; also called non-melanotropic POMC peptide β-endorphin
As to B4, in assay [3], the binding result is given as “no binding”.
